Experimental data as given in patent US20250304644A1, “PEPTIDES TRIPLE AGONISTS OF GIP, GLP-1 AND GLP-2” (BAINAN BIOTECH APS, priority 2021, published 2025).
*1 amine or outer side, *2 acyl side, *3 side chain or, on linkers, in order; H or OH if unused. Where no end group is shown, it is not given here. Side-chain parts run from the residue outwards. [ ]: non-standard residue; d: D form. The star is where a group is joined. C18 diacid = O=C(O)CCCCCCCCCCCCCCCCC(=O)*; γGlu = O=C(O)[C@H](CCC(=O)[*:2])N[*:1]; AEEA = NCCOCCOCC(=O)O; Aib = CC(C)(N)C(=O)O

T1: human GLP-2R (glucagon-like peptide-2 receptor) (human, UniProt O95838 1-553)
T1 sequence (looked up): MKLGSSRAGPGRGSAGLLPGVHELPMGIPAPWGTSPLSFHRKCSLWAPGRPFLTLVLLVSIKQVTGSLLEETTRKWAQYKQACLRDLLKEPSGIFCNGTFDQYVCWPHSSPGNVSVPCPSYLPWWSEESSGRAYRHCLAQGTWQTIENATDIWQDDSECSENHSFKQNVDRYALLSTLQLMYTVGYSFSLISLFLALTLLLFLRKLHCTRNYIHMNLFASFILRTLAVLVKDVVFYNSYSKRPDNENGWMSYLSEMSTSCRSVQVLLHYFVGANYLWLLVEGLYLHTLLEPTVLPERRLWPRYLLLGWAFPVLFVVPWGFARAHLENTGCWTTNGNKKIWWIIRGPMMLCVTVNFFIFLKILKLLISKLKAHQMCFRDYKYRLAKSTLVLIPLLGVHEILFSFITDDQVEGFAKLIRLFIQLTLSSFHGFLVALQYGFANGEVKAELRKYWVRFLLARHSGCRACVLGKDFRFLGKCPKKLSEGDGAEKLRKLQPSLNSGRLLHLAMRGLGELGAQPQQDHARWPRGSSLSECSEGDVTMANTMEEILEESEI

T2: human SNAP-tagged GLP-2R (human, UniProt O95838 1-553, SNAP tag labeled with Tag-Lite SNAP-Lumi4-Tb)
T2 sequence (looked up): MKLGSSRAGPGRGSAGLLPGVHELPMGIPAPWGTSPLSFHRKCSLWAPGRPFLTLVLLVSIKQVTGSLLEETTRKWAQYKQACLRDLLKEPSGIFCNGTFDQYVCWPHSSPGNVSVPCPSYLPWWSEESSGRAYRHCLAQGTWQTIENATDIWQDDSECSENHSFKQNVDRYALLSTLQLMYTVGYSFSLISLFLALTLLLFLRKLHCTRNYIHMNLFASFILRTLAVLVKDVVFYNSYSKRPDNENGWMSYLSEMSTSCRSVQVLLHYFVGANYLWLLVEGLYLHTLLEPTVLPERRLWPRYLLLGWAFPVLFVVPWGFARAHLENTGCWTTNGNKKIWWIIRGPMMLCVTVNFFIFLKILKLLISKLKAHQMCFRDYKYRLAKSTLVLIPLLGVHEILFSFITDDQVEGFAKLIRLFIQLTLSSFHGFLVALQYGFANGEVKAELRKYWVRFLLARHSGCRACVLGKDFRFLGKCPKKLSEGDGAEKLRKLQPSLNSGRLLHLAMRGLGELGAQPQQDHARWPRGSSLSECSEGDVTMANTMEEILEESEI

T3: Human N-terminally SNAP-tagged GIPR (human, UniProt P48546 22-466, SNAP tag labeled with Tag-Lite SNAP-Lumi4-Tb)
T3 sequence (looked up): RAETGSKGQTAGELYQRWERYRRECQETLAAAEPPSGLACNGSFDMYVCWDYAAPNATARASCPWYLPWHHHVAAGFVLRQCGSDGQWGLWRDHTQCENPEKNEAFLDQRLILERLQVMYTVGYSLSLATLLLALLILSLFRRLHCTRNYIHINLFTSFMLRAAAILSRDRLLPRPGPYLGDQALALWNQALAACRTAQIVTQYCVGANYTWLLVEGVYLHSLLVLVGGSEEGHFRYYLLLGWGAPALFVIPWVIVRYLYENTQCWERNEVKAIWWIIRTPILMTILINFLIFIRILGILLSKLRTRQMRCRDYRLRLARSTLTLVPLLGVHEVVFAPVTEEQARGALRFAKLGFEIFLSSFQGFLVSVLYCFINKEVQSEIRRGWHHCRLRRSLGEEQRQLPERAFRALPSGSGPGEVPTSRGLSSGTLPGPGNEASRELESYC

T4: human GIPR (glucose-dependent insulinotropic polypeptide receptor) (human, UniProt P48546 22-466)
T4 sequence (looked up): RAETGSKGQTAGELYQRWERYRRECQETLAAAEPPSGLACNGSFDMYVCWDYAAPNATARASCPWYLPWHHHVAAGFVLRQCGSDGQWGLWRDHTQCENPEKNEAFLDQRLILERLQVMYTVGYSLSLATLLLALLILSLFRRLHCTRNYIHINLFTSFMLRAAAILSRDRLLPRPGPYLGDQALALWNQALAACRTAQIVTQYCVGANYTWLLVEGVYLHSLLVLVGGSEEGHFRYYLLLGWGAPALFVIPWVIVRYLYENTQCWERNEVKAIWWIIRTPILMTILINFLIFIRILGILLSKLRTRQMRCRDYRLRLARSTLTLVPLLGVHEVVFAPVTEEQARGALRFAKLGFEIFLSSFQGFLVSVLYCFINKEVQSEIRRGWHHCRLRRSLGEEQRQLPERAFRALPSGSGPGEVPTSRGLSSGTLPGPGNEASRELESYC


Columns and labels:
Test in all cases: cell-based or functional assay
[1] = molecular target: human GLP-1R (glucagon-like peptide-1 receptor) (human, UniProt P43220 24-463)
[2] = molecular target: T1, human GLP-2R (glucagon-like peptide-2 …)
human SNAP-tagged GLP-1R = human SNAP-tagged GLP-1R (human, UniProt P43220 24-463, SNAP tag labeled with Tag-Lite SNAP-Lumi4-Tb)
human SNAP-tagged GLP-2R = molecular target: T2, human SNAP-tagged GLP-2R
[3] = molecular target: T3, Human N-terminally SNAP-tagged GIPR
[4] = molecular target: human glucagon receptor (GCGR) (human, UniProt P47871 26-477, limits assumed)
Sequence of human glucagon receptor (GCGR) (P47871 26-477 limits assumed): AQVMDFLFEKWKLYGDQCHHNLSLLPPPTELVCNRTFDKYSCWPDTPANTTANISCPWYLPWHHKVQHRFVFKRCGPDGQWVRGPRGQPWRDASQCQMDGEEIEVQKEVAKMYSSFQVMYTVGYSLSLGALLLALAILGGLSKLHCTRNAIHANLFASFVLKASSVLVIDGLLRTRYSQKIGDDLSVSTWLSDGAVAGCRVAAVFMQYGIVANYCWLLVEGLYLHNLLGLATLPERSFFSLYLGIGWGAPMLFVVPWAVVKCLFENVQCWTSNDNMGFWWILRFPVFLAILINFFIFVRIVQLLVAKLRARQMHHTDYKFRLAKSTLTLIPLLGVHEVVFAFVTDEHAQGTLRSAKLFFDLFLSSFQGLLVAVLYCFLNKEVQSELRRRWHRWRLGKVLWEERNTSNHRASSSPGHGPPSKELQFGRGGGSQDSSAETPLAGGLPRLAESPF

[5] = molecular target: T4, human GIPR (glucose-dependent …)

EC50 (nM) GLP-1R [1] [nM]	Efficacy GLP-1R [1]	logEC50 GLP-1R [1]	EC50 (nM) GLP-2R [2] [nM]	Efficacy GLP-2R [2]	logEC50 GLP-2R [2]	Absolute hGLP-1R internalization (AUC) (human SNAP-tagged GLP-1R)	Relative hGLP-1R internalization (%) (human SNAP-tagged GLP-1R)	Absolute hGLP-2R internalization (AUC) (human SNAP-tagged GLP-2R)	Relative hGLP-2R internalization (%) (human SNAP-tagged GLP-2R)	Absolute hGIPR internalization (AUC) [3] [AUC]	Relative hGIPR internalization (%) [3] [%]	potency in Gs activation, measured as cAMP accumulation (-p Log EC50) [4]	EC50 (nM) GIPR [5] [nM]	Efficacy GIPR [5]	pEC50 GIPR [5]	Binder
0.04	112	10.4	0.3	100	9.5	91.8	109	39.4	81	14.2	38	< 7 -p Log EC50				HADGTFTSDYSIILDK([AEEA-AEEA-γGlu-C18 diacid])LAARDFINWLIQTKGKKNDWKHNITQ-OH [Compound 20]
0.04	116	10.5	0.6	93	9.3	78.8	93.7	38	78.2	7	19	< 7 -p Log EC50	1.12	93	9	HADGTFTSDYST[Aib]LDK([AEEA-AEEA-γGlu-C18 diacid])LAARDFINWLIQTKGKKNDWKHNITQ-OH [Compound 22]
